From publication PMC9482650, “Quantitative fragmentomics allow affinity mapping of interactomes” (Nature Communications, 2022)

Assays:
Assay in all cases: holdup assay
Design in all cases: key: below the threshold = too weak to quantify, mostly under pKd 3.1 to 4
[1] = biological target: PARD3_3, Q8TEW0
[2] = biological target: DLG4_2, P78352
[3] = biological target: FRMPD2_2, Q68DX3
[4] = biological target: TJP1_2, Q07157
[5] = biological target: DLG5_1, Q8TDM6
[6] = biological target: T1, TIAM2, Q8IVF5
T1 sequence (Q8IVF5 885-986, limits assumed, looked up): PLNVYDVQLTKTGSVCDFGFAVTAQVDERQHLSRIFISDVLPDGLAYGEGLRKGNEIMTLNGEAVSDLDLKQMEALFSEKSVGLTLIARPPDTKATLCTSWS

[7] = biological target: MAGI2_2, Q86UL8
Sequence of MAGI2_2, Q86UL8 (Q86UL8 410-522): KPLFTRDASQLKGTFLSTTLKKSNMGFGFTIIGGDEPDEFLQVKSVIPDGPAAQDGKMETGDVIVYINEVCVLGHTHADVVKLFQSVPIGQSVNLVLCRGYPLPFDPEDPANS

[8] = biological target: T2, PDZRN3_1, Q9UPQ7
T2 sequence (Q9UPQ7 244-349, limits assumed, looked up): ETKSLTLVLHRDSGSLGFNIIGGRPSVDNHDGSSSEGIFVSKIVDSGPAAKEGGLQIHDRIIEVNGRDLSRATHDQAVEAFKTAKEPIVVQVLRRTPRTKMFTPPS

[9] = biological target: T3, SNTG1, Q9NSN8
T3 sequence (Q9NSN8 52-150, limits assumed, looked up): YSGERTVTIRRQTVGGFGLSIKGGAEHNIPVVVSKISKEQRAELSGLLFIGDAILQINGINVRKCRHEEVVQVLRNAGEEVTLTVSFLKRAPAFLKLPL

[10] = biological target: SNX27, Q96L92
[11] = biological target: LDB3, O75112
Sequence of LDB3, O75112 (O75112 1-94): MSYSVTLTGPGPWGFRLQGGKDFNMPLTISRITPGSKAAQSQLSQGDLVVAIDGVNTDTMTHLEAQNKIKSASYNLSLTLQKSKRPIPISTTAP

[12] = biological target: T4, MPDZ_12, O75970
T4 sequence (O75970 1857-1958, limits assumed, looked up): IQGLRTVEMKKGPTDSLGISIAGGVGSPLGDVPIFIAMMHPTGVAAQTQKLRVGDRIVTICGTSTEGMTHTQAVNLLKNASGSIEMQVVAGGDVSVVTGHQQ

[13] = biological target: GRID2IP_2, A4D2P6
Sequence of GRID2IP_2, A4D2P6 (A4D2P6 272-370): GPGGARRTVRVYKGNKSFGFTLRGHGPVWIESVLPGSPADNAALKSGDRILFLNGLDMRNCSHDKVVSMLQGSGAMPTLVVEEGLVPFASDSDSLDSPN

[14] = biological target: MAGI2_5, Q86UL8
Sequence of MAGI2_5, Q86UL8 (Q86UL8 915-1017): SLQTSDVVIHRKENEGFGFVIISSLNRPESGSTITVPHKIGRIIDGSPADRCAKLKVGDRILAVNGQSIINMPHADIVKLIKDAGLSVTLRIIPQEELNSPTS

[15] = biological target: SCRIB_2, Q14160
Sequence of SCRIB_2, Q14160 (Q14160 857-960): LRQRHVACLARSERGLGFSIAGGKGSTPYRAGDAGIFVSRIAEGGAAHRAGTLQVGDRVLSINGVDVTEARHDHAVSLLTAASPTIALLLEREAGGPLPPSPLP

[16] = biological target: T5, LNX2_2, Q8N448
T5 sequence (Q8N448 334-432, limits assumed, looked up): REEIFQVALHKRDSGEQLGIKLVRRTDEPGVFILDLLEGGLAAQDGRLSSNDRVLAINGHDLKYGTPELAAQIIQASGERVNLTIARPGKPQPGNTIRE

[17] = biological target: MAGI3_2, Q5TCQ9
Sequence of MAGI3_2, Q5TCQ9 (Q5TCQ9 398-503): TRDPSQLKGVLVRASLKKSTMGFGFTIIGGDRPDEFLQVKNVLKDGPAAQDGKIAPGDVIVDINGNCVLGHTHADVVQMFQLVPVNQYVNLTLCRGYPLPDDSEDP

[18] = biological target: T6, GRIP1_5, Q9Y3R0
T6 sequence (Q9Y3R0 568-668, limits assumed, looked up): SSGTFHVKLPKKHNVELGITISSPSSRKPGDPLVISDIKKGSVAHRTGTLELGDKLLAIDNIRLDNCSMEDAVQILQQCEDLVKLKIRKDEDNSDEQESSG

[19] = biological target: T7, TX1BP3, O14907
T7 sequence (O14907 10-122, limits assumed, looked up): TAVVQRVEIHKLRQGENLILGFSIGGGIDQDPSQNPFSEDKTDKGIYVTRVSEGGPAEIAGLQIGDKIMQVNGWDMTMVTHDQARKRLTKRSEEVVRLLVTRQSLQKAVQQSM

[20] = biological target: T8, SYNJ2BP, P57105
T8 sequence (P57105 8-110, limits assumed, looked up): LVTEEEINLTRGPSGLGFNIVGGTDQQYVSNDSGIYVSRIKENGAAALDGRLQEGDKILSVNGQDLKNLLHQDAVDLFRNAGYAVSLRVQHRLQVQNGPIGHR

[21] = biological target: GRID2IP_1, A4D2P6
Sequence of GRID2IP_1, A4D2P6 (A4D2P6 1-87): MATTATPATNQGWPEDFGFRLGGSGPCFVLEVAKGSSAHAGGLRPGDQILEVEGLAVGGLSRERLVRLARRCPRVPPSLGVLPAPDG

[22] = biological target: T9, SNTG2, Q9NY99
T9 sequence (Q9NY99 68-166, limits assumed, looked up): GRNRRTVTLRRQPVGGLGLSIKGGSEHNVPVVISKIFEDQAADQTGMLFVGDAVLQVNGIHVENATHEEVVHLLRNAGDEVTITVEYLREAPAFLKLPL

[23] = biological target: DLG4_3, P78352
Sequence of DLG4_3, P78352 (P78352 306-403): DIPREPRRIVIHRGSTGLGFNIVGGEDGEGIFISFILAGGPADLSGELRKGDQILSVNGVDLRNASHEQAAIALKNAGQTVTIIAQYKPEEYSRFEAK

[24] = biological target: IL16_1, Q14005
Sequence of IL16_1, Q14005 (Q14005 210-306): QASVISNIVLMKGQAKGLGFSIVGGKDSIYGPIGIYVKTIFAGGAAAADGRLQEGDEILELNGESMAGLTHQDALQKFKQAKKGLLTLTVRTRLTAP

[25] = biological target: T10, NHERF3_4, Q5T2W1
T10 sequence (Q5T2W1 373-468, limits assumed, looked up): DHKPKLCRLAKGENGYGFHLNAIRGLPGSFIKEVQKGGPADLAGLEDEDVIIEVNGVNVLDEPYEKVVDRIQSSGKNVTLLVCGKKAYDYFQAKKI

[26] = biological target: MAGI2_3, Q86UL8
Sequence of MAGI2_3, Q86UL8 (Q86UL8 600-682): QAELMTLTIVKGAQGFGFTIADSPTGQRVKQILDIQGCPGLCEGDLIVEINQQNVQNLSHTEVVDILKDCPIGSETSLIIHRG

[27] = biological target: NOS1, P29475
Sequence of NOS1, P29475 (P29475 9-101): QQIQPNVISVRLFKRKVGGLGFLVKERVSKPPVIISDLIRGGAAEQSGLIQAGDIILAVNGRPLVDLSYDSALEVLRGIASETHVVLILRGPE

[28] = biological target: FRMPD2_1, Q68DX3
Sequence of FRMPD2_1, Q68DX3 (Q68DX3 770-861): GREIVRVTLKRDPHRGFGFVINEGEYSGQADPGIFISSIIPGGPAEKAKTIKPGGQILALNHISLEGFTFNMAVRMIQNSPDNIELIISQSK

[29] = plain residues with an end cap or a label only (N-terminal biotin on a linker: ttds)
[30] = plain residues with an end cap or a label only (N-terminal biotin on a linker: ahx)
[31] = plain residues with an end cap or a label only (N-terminal biotin on a linker: ado-ado)

Sequence of PARD3_3, Q8TEW0 (Q8TEW0 582-685): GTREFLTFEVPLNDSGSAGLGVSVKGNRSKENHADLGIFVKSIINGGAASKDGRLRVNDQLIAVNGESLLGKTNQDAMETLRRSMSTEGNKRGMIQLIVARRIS
Sequence of FRMPD2_2, Q68DX3 (Q68DX3 944-1038): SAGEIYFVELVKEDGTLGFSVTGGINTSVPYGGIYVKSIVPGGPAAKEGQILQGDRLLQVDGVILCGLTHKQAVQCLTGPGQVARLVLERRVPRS
Sequence of TJP1_2, Q07157 (Q07157 181-274): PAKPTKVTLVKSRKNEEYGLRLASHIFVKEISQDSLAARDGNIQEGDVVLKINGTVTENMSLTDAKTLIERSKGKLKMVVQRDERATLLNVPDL
Sequence of DLG4_2, P78352 (P78352 155-259): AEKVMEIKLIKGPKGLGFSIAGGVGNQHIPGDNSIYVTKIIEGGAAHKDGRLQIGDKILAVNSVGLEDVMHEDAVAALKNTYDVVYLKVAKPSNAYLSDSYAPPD
Sequence of DLG5_1, Q8TDM6 (Q8TDM6 617-713): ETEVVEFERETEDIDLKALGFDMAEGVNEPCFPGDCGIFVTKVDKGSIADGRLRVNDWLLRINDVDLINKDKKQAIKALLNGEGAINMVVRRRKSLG

In the case of IQREDQETAV [DGKZ, Q13574], the pKd [1, 29] is reported as “below the threshold”, the pKd [2, 29] is reported as 4.96 and the pKd [3, 29] is reported as 4.93. The pKd [4, 29] was “below the threshold”, the pKd [5, 29] was “below the threshold” and the pKd [6, 29] was “below the threshold”. For the same binder, the pKd [7, 29] was 3.65, the pKd [8, 29] was 4.91 and the pKd [9, 29] was 5.4. For the same binder, the pKd [10, 29] was 6, the pKd [11, 29] was “below the threshold” and the pKd [12, 29] was “below the threshold”. The pKd [13, 29] was 3.98, the pKd [14, 29] was 4.69 and the pKd [15, 29] was 4.86. For the same binder, the pKd [16, 29] was “below the threshold”, the pKd [17, 29] was 4.85 and the pKd [18, 29] was “below the threshold”. For the same binder, the pKd [19, 29] was 4.18, the pKd [20, 29] was 5.31 and the pKd [21, 29] was “below the threshold”. It also gave a pKd [22, 29] of 4.95, a pKd [23, 29] of 3.84 and a pKd [24, 29] of 4.38. For the same binder, the pKd [25, 29] was “below the threshold”, the pKd [26, 29] was 4.45 and the pKd [27, 29] was 4.34. The pKd [28, 29] was “below the threshold”.

With HIVEALETDV [PBK, Q96KB5] the pKd [1, 29] was 3.76, the pKd [2, 29] was 5.55 and the pKd [3, 29] was 4.66. For the same binder, the pKd [4, 29] was “below the threshold”, the pKd [5, 29] was “below the threshold” and the pKd [6, 29] was “below the threshold”. The pKd [7, 29] was “below the threshold”, the pKd [8, 29] was “below the threshold” and the pKd [9, 29] was 5.68. The pKd [10, 29] was 4.83, the pKd [11, 29] was “below the threshold” and the pKd [12, 29] was “below the threshold”. The pKd [13, 29] was 3.96, the pKd [14, 29] was 3.98 and the pKd [15, 29] was 5.32. For the same binder, the pKd [16, 29] was 3.92, the pKd [17, 29] was 4.29 and the pKd [18, 29] was “below the threshold”. For the same binder, the pKd [19, 29] was 5.03, the pKd [20, 29] was 4.35 and the pKd [21, 29] was “below the threshold”. For the same binder, the pKd [22, 29] was 4.85, the pKd [23, 29] was “below the threshold” and the pKd [24, 29] was 3.97. The pKd [25, 29] was “below the threshold”, the pKd [26, 29] was 3.93 and the pKd [27, 29] was “below the threshold”. For the same binder, the pKd [28, 29] was “below the threshold”.

For EKLSSIESDV [GRIN2B, Q13224], the pKd [1, 30] was “below the threshold”, the pKd [2, 30] was 4.86 and the pKd [3, 30] was 3.91. The pKd [4, 30] was “below the threshold”, the pKd [5, 30] was “below the threshold” and the pKd [6, 30] was 3.71. The pKd [7, 30] was “below the threshold”, the pKd [8, 30] was 3.7 and the pKd [9, 30] was 4.8. The pKd [10, 30] was 3.87, the pKd [11, 30] was “below the threshold” and the pKd [12, 30] was “below the threshold”. For the same binder, the pKd [13, 30] was “below the threshold”, the pKd [14, 30] was 3.82 and the pKd [15, 30] was 4.34. The pKd [16, 30] was “below the threshold”, the pKd [17, 30] was 3.54 and the pKd [18, 30] was “below the threshold”. For the same binder, the pKd [19, 30] was 4.74, the pKd [20, 30] was 4.4 and the pKd [21, 30] was “below the threshold”. For the same binder, the pKd [22, 30] was 4.04, the pKd [23, 30] was “below the threshold” and the pKd [24, 30] was 4.02. For the same binder, the pKd [25, 30] was “below the threshold”, the pKd [26, 30] was “below the threshold” and the pKd [27, 30] was “below the threshold”. For the same binder, the pKd [28, 30] was “below the threshold”.

For MERLRVETDV [ARHGEF16, Q5VV41], the pKd [1, 29] was “below the threshold”, the pKd [2, 29] was 5.44 and the pKd [3, 29] was 3.74. The pKd [4, 29] was “below the threshold”, the pKd [5, 29] was “below the threshold” and the pKd [6, 29] was “below the threshold”. For the same binder, the pKd [7, 29] was 4.38, the pKd [8, 29] was 3.53 and the pKd [9, 29] was 4.89. The pKd [10, 29] was 4.17, the pKd [11, 29] was “below the threshold” and the pKd [12, 29] was “below the threshold”. For the same binder, the pKd [13, 29] was 3.57, the pKd [14, 29] was “below the threshold” and the pKd [15, 29] was 5.01. The pKd [16, 29] was 3.93, the pKd [17, 29] was 4.6 and the pKd [18, 29] was “below the threshold”. For the same binder, the pKd [19, 29] was 5.04, the pKd [20, 29] was 4.8 and the pKd [21, 29] was “below the threshold”. For the same binder, the pKd [22, 29] was 4.47, the pKd [23, 29] was “below the threshold” and the pKd [24, 29] was “below the threshold”. For the same binder, the pKd [25, 29] was “below the threshold”, the pKd [26, 29] was 3.53 and the pKd [27, 29] was “below the threshold”. The pKd [28, 29] was 3.79.

SVVSERISSV [HTR2C, P28335] was tested, and the pKd [1, 31] was “below the threshold”, the pKd [2, 31] was 4.64 and the pKd [3, 31] was 4.25. For the same binder, the pKd [4, 31] was “below the threshold”, the pKd [5, 31] was “below the threshold” and the pKd [6, 31] was 3.88. The pKd [7, 31] was 3.77, the pKd [8, 31] was 3.51 and the pKd [9, 31] was 4.06. The pKd [10, 31] was 5.06, the pKd [11, 31] was “below the threshold” and the pKd [12, 31] was “below the threshold”. For the same binder, the pKd [13, 31] was 4.44, the pKd [14, 31] was 4.01 and the pKd [15, 31] was “below the threshold”. For the same binder, the pKd [16, 31] was 3.96, the pKd [17, 31] was 4.46 and the pKd [18, 31] was “below the threshold”. The pKd [19, 31] was 4.06, the pKd [20, 31] was 4.46 and the pKd [21, 31] was “below the threshold”. The pKd [22, 31] was “below the threshold”, the pKd [23, 31] was “below the threshold” and the pKd [24, 31] was 4.56. The pKd [25, 31] was “below the threshold”, the pKd [26, 31] was 4.3 and the pKd [27, 31] was 3.58. The pKd [28, 31] was “below the threshold”.

In the case of SEKHFRETEV [HTLV1-TAX1, P03409], the pKd [1, 29] is reported as 3.71, the pKd [2, 29] is reported as 5.51 and the pKd [3, 29] is reported as “below the threshold”. For the same binder, the pKd [4, 29] was “below the threshold”, the pKd [5, 29] was “below the threshold” and the pKd [6, 29] was “below the threshold”. It also gave a pKd [7, 29] of 4.57, a pKd [8, 29] of 5.1 and a pKd [9, 29] of 5.43. The pKd [10, 29] was 5.72, the pKd [11, 29] was “below the threshold” and the pKd [12, 29] was “below the threshold”. The pKd [13, 29] was 3.84, the pKd [14, 29] was 4.84 and the pKd [15, 29] was 5.76. The pKd [16, 29] was 4.15, the pKd [17, 29] was 4.99 and the pKd [18, 29] was “below the threshold”. For the same binder, the pKd [19, 29] was 6.2, the pKd [20, 29] was 6.04 and the pKd [21, 29] was “below the threshold”. It also gave a pKd [22, 29] of 4.12, a pKd [23, 29] of 5.34 and a pKd [24, 29] of 4.44. For the same binder, the pKd [25, 29] was “below the threshold”, the pKd [26, 29] was 4.3 and the pKd [27, 29] was 4.09. For the same binder, the pKd [28, 29] was 3.75.
